These results are taken from patent publication US20250011363A1, “OPTIMIZED SHORTENED PEPTIDE THAT BINDS TO ACETYLCHOLINE RECEPTOR, AND USE THEREOF” (SKINMED CO., LTD., priority 2021, published 2025).

One experiment has as its target acetylcholine receptor. The experiment can be described thus: SPR, AchR immobilized on chip.
Experiment [1] has as its target acetylcholine receptor on acetylcholine receptor-overexpressing TE671 cells. The experiment can be described thus: cell-based or functional assay.

On to Synake (peptide), for which the Binding affinity (RU) in the experiment with acetylcholine receptor is 14 RU. The inhibition of acetylcholine receptors (calcium imaging with Fura-2-AM, TE671 cells, nicotine 400 uM) in experiment [1] was found to be 500 µM.
